From US20020081719

Key:
PPARγ/RXR heterodimer = PPARγ/RXR heterodimer (UniProt P37231+P19793); assay: EMSA; conditions: 0.5 mM ZnCl2, 4 C
PPARα/RXR heterodimer = PPARα/RXR heterodimer (UniProt Q07869+P19793); assay: EMSA; conditions: cooperativity ratio; 0.5 mM ZnCl2, 4 C
[1] = cooperativity ratio, dimer and tetramer complexes

Chain of PPARγ/RXR heterodimer (P37231 whole entry, chain 1 of 2): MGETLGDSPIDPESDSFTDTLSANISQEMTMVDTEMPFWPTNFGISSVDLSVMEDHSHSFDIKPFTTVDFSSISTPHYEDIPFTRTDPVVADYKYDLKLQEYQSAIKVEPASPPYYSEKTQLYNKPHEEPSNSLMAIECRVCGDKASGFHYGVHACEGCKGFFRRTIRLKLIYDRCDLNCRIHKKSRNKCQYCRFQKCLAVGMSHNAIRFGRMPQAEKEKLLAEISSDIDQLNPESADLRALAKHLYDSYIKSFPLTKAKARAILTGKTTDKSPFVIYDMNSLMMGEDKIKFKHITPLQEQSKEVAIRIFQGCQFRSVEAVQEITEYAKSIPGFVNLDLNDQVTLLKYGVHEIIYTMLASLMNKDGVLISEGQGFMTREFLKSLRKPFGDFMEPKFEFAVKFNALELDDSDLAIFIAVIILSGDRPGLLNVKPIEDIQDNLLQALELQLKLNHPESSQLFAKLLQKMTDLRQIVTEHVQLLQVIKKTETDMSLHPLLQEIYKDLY
Chain of PPARγ/RXR heterodimer (P19793 whole entry, chain 2 of 2): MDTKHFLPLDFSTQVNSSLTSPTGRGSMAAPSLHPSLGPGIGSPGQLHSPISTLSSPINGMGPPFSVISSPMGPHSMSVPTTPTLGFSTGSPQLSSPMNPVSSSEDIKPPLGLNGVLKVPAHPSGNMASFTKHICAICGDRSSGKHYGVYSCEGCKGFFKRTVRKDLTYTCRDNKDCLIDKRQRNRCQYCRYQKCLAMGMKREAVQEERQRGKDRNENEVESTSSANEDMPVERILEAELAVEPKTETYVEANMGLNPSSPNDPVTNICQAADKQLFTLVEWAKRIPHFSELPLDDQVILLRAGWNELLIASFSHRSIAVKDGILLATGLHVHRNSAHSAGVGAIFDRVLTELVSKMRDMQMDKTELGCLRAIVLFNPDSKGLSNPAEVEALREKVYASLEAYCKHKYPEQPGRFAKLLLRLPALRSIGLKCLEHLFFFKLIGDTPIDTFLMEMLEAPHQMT
Chain of PPARα/RXR heterodimer (Q07869 whole entry, chain 1 of 2): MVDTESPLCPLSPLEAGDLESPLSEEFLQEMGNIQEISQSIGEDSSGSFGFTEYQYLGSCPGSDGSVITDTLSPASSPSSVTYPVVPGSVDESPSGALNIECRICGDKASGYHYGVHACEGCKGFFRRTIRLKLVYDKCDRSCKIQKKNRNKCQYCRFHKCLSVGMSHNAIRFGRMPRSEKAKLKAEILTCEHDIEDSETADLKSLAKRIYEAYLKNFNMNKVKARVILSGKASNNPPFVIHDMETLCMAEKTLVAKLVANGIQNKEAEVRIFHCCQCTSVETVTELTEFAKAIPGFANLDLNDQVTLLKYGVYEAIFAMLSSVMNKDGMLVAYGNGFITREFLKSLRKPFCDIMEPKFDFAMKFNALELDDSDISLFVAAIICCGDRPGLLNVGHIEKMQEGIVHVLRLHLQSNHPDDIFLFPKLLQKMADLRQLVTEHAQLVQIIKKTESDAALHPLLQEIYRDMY
Chain of PPARα/RXR heterodimer (P19793 whole entry, chain 2 of 2): as the sequence (P19793 whole entry, chain 2 of 2) above

CAAAACTAGGTCAAAGGTCATGTCTTTAGGCCCAAAACTAGGTCAAAGGTCA (double strand) [(DR1)2 31]
cooperativity ratio (KdII/KdIV) (PPARγ/RXR heterodimer; [1]): 12.6 KdII/KdIV | binding signal (PPARα/RXR heterodimer): 11.6 KdII/KdIV

CAAAACTAGGTCAAAGGTCAAAACTAGGTCAAAGGTCA (double strand) [(DR1)2 17]
cooperativity ratio (KdII/KdIV) (PPARγ/RXR heterodimer; [1]): 9 KdII/KdIV | binding signal (PPARα/RXR heterodimer): 7 KdII/KdIV

CAAAACTAGGTCAAAGGTCATCAAAACTAGGTCAAAGGTCA (double strand) [(DR1)2 21]
cooperativity ratio (KdII/KdIV) (PPARγ/RXR heterodimer; cooperativity ratio 34 +/- 11, 80% tetrameric): 34 KdII/KdIV | binding signal (PPARα/RXR heterodimer): 11.2 KdII/KdIV
